Assay [1] deals with T1, recombinant cynomolgus MerTK extracellular domain (cynomolgus, UniProt Q12866 21-505 (human entry)).
T1 construct: also called cyno MerTK ECD; not shown: polyHis or TEVS/Thrombin/murine IgG2a-Fc tag
T1 chain: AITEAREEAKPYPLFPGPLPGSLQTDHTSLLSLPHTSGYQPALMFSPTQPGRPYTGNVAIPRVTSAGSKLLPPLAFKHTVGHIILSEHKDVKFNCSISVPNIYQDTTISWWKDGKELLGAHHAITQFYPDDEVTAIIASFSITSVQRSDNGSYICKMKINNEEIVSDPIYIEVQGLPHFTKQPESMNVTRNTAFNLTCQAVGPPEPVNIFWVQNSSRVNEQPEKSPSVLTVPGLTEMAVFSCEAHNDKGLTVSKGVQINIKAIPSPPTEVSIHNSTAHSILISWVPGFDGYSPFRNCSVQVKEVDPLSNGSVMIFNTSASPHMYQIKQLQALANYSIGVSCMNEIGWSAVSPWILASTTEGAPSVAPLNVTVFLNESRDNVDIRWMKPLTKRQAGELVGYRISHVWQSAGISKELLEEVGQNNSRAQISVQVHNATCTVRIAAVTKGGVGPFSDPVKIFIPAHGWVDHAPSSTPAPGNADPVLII
Nature of the assay: SPR Carterra LSA. As for the experimental part: Binding kinetics of anti-MerTK IgG1 antibodies of the present disclosure to human, cyno, and murine MerTK were evaluated using a Carterra LSA instrument (Carterra, Salt Lake City, UT). […] A HC200M sensor chip (Carterra) was activated using the single channel flow cell with a 7-minute injection of a 1:1:1 mixture of 100 mM MES pH 5.5, 100 mM sulfo-NHS, 400 mM EDC (all reconstituted in MES pH 5.5; 100 μl of each mixed in vial immediately before running assay). After switching to the multi-channel array flow cell, the antibodies were injected over the activated chip in three 96-spot arrays for 10 minutes each. The remaining unconjugated active groups on the chip were then blocked by injecting 1M Ethanolamine pH 8.5 (Carterra) for 7 minutes using the single channel flow cell. The resulting sensor chip contained three spots for each antibody, at three different densities. Two independent experiments were performed as follows, resulting in an N of between one and six determinations for each antibody. Spots that yielded less than 25 RU of analyte binding were excluded from further analysis.
After priming with running buffer (HBS-TE, Carterra) with 0.5 mg/ml BSA (Sigma), the immobilized anti-MerTK antibodies were tested for their ability to bind to several forms of recombinant MerTK extracellular domain, including human, cynomolgus, and mouse orthologs as described above. Estimates of affinity were generated by injecting each analyte over the entire antibody array using the single channel flow cell. MerTK analytes were diluted with running buffer, in a series of six, three-fold serial dilutions starting from 1 μM for human and cynomolgus MerTK, and 600 nM for mouse MerTK. Analytes were injected for 5 minutes, and dissociation was followed for 10 minutes. After each analyte injection, antibodies were regenerated with either Protein A/G Elution Buffer (Thermo) with 1M NaCl (Teknova), or with 10 mM Glycine pH 2.5. Three buffer blanks were run between each series (one species per series). Data were processed and analyzed using NextGenKIT high-throughput kinetics analysis software (Carterra).

Assay [2] concerns the target T2, recombinant human MerTK extracellular domain (human, UniProt Q12866 21-505).
T2 construct: also called human MerTK ECD; not shown: polyHis or TEVS/Thrombin/murine IgG2a-Fc tag
T2 sequence: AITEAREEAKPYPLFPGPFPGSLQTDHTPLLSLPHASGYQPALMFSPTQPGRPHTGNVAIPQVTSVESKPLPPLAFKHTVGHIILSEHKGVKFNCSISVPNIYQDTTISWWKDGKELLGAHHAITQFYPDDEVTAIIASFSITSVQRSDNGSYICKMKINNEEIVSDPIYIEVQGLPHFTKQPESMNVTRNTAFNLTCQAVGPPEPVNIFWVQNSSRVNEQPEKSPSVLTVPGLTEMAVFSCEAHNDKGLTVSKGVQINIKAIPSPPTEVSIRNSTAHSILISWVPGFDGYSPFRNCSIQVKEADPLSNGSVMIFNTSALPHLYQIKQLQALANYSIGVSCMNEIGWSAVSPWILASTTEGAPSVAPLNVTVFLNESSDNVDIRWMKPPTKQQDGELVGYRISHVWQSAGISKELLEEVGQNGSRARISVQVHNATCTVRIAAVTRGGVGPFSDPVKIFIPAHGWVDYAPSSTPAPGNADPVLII
Nature of the assay: SPR Carterra LSA, Ab immobilised. The procedure, abridged:
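Surface plasmon resonance on a Carterra LSA measured affinity of immobilized antibodies for human, cynomolgus or mouse MerTK ectodomain diluted in HBS-TE with 0.5 mg/ml BSA. Analytes flowed over the full array, surfaces were regenerated with Protein A/G Elution Buffer plus 1M NaCl or 10 mM Glycine pH 2.5, and spots binding under 25 RU were discarded before kinetic fitting.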

In assay [3] the target is T3, MerTK N-terminal ECD Half-and-half chimera (human).
T3 construct: tested as culture supernatant; also called MerTK N-term half-and-half chimera; MerTK N-terminal ECD (NT-Ig1-Ig2) + Axl C-terminal ECD (FN1-FN2-JM)
T3 chain: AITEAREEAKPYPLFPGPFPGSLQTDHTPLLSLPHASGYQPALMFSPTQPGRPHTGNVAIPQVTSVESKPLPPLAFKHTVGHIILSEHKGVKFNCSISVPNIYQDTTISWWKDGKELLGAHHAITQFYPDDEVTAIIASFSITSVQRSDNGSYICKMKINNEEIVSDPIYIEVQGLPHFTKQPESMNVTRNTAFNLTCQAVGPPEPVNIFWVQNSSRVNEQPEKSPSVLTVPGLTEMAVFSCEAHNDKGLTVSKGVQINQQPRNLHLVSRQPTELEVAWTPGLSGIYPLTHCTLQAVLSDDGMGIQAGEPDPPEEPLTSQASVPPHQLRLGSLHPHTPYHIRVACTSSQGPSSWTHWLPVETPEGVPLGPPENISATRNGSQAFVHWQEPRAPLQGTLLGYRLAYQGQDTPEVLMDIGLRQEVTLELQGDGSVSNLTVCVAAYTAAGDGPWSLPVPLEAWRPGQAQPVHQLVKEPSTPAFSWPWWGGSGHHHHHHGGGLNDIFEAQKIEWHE
Briefly: SPR, construct supernatant over immobilised Ab. Here is the method: Binding of anti-MerTK antibodies of the present disclosure to these domain-swapped chimera or deletion mutants was tested by Surface Plasmon Resonance (SPR) using Carterra LSA. Purified anti-MerTK antibodies were immobilized in duplicate on a HC30M chip (Carterra) by amine coupling, following the manufacturer's instructions (described previously).
Supernatants containing the constructs were diluted 1:1 with running buffer containing 0.5 mg/mL BSA (HBS-TE, Carterra; BSA, Sigma) and injected over the immobilized antibodies. The surface was regenerated with 10 mM Glycine pH2.0 after each construct injection. Sensorgrams were analyzed using Carterra Epitope software to identify patterns of construct binding. Loss of binding to MerTK constructs with domains deleted or swapped in from Axl and/or gain of binding to Axl constructs with MerTK domains swapped in were evaluated. Data from these studies were used to construct a domain binding map for anti-MerTK antibodies and their binding to various domains of human MerTK.
(Surface plasmon resonance follows binding to a sensor surface in real time, without labels.)

B1: MTK-210 (antibody, human IgG1, V domains shown)
VH: QVQLQQSGPELVKPGASVKISCKASDYEFSRSWMNWVKQRPGKGLEWIGRIYPGDGDTNYNGKFKGKATLTADKSSNTAYMQLNSLTSEDSAVYFCARKGGYYYSISNYFDYWGQGTTLTVSS
VL: QIVLTQSPAIMSASPGVKVTMTCSASSSVSYMHWYQQKPGSSPRLLIYDTSNLASGVPVRFSGSGSGTSYSLTISRMEAEDAATYYCQQWSSYPPYTFGGGTKLEIK
Consider B1, for which the “Ratio of KD for Cynomolgus vs Human MerTK” value (shortened to “Ratio of KD for Cynomolgus”) in assay [1] was 1.2 ratio. Besides, in assay [2], the dissociation constant Kd (commonly the constant that tells how readily two partners part at equilibrium) is 31 nM. In addition, the binding result in assay [3] is reported as “no binding”.

B2: MTK-206 (antibody, human IgG1, V domains shown)
VH: QVQLQQSGAELARPGASVKMSCKASGYTFTSYTMHWVKQRPGQGLEWIGYINPSSGYIKNSQKFKDKATLTADKSSSTAYMQLSSLTSEDSAVYYCARTVYGYYGSSPDYWGQGTTLTVSS
VL: DIQMTQSPSSLSASLGERVSLTCRASQDIGSNLNWLQQEPDGTIKRLIYATSSLESGVPKRFSGSRSGSDYSLTISSLESEDFVDYYCLQYDSSPWTFGGGTKLEIK
B2: the “Ratio of KD for Cynomolgus” value in assay [1] was determined as 24.7 ratio. Moreover, the Kd in assay [2] came out at 150 nM. In addition, the binding result in assay [3] is listed as “no binding”.

B3: MTK-212 (antibody, human IgG1, V domains shown)
VH: QVQLQQSGPELVKPGASVKISCKASGYAFSSSWVNWVKQRPGKGLEWIGRIYPGDGDSNYNGNFKGKATLTADKSSNTAYLQLSSLTSEDSAVYFCARKSHFIYYTLDYWGQGTPVTVSS
VL: DIVMTQSHKFKSTSVGDRVSIACKASQDVGTSVAWYQQKPGKSPKLLIYWASSRHTGVPDRFTGSGSGTDFTLTISNVQSEDLTDYFCQQYSTYPYTFGGGTKLEIK
Take B3: in assay [1], the “Ratio of KD for Cynomolgus” value came out at 18.3 ratio. The Kd in assay [2] was found to be 82 nM. Besides, in assay [3], the binding result is recorded as “no binding”.

The values above are taken from US20240294650A1 (Alector, published 2024).
